System: MS2 coat protein
Assay: apparent KD of MS2 coat protein; designed switch direction (-1 OFF switch, 1 ON switch): -1; higher = weaker reporter binding
In short: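 Each step of the titration lasted 0.8–1.5 h at the lowest concentration and 10–20 min at the highest. The protein, SNAP-549-labelled MS2 coat protein, went from 0.7 or 1.5 nM doubling to 3 µM over RNA switches transcribed on Illumina chips by stalled E. coli RNA polymerase. Normalised cluster fluorescence was curve-fitted, and the per-design median over clusters is given as apparent KD.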

[1] = Eterna round: R95, input ligand: microRNA oligo, concentration not stated
[2] = Eterna round: R95, input ligand: FMN 200 uM
[3] = Eterna round: R95, input ligand: none
[4] = input ligand: microRNA oligo, concentration not stated

Sequence | apparent KD of MS2 coat protein (input ligand: FMN 200 uM) [nM] | apparent KD of MS2 coat protein (input ligand: none) [nM] | apparent KD of MS2 coat protein [1] [nM] | apparent KD of MS2 coat protein [2] [nM] | apparent KD of MS2 coat protein [3] [nM] | apparent KD of MS2 coat protein [4] [nM]
GGGUGACAUGAGGAUCACCCAUGUCAGGAUAUGGGCCCGGGCCCGAAAGGGCCCGGGUUUAGAAGGGACUGCCC [-44.4, -43.4 kcal, 22%A (-3 GC series)] (Eterna round: R97, puzzle: Exclusion 1) | 59.3 | 42.9 | – | – | – | –
CUUUUGUGAGGAUAUUAGUAGUUAAUAAAUAAAAUUACUACUGAGAAGGCACAUGAGGAUCACCCAUGUUCCUC [salish99_ex4_r3_051] (puzzle: Exclusion 4) | – | – | 32.8 | – | – | –
GUAGUGUGAGGAUAUGGUAAAGAUAAGAUGAUGAAAGAACUCCAGAAGGCACAUGAGGAUCACCCAUGUAGAUU [Mat - Exclusion 4 - Mod of JL - D26] (puzzle: Exclusion 4) | – | – | 19.7 | 49.8 | 26 | –
GAAGAGACAGGAUAUACAUGAGGAUCACCCAUGUGAGGAGGUUGGAAGCGGAGAAGGUGUAGAAGGGUCAAAGA [JR_Exclu3_Sub023] (puzzle: Exclusion 3) | – | – | 37.1 | 75.1 | 80.7 | –
GAUUAUGCGAGCUUUAGGGACAUGAGGAUCACCCAUGUUCGUCUUAUUAAUCUAGGUGCACUAACAUACCUAAAUCU [JMF 32] (puzzle: Sensor v3, turn-off variant 1) | – | – | 39.4 | 21.9 | 21.7 | –
AAUGAUUGACGAGGAUAUUGUGUUAGAUCACGACGAGAAGGCGUCUGUCACAUGAGGAUCACCCAUGUGAGCCUUGUGGAUAGA [Ex NG1 #77] (Eterna round: R96, puzzle: Exclusion NG 1) | 618 | 378 | – | – | – | 399
AGUACUAUGCGAGCUGACUUGCGUAGUGCAGCAGGUGAAACAUGAGGAUCACCCAUGUCCUCAUUUGCUCGUCUUAU [Mat - Sensor v3 - Turn-off var 2 - D2] (puzzle: Sensor v3, turn-off variant 2) | – | – | 502 | 34.3 | 33.8 | –
CACAAGCUUUUUUGAUGCAUUUUAGUUGGUUGCCUUUUUACAUGAGGAUCACCCAUGUUUGUGUAGCUCGAUCUUUU [JR_SV3TOV2_Sub078] (puzzle: Sensor v3, turn-off variant 2) | – | – | 29 | 36.5 | 41.2 | –
UUUUUUUUUGUGAGGAUAUACUUUUUUUUUUUUUUGUAGAAGGCACAUGAGGAUCACCCAUGUUUUUUUUUCUC [JR_BME4_Sub029] (puzzle: Brourd's mod of Exclusion 4) | – | – | 13.2 | – | – | –
UAUUCGCAAGUGAGAUCCCACAUGAGGAUCACCCAUGUGCUCGUCUUAUAAGGUACUGUGACGAAAGUCACGGUACC [Sensor 3, v1 - 91 v23] (Eterna round: R97, puzzle: Sensor, turn-off variant 1) | 32.4 | 36.1 | – | – | – | –
CAGCGUGAAGGAUAUACAUGAGGAUCACCCAUGUGCAACUCUCCAACUCGGACUCCCUGUAGAAGGUCGGCUUU [Eternabot (L2) Solution 88] (Eterna round: R97, puzzle: Exclusion 3) | 26.9 | 28 | – | – | – | –
AUUUAGUCAGGAUAUUAGUAGUAAAUGAAUAAAAUUAUUACUGAGAAGGGACAUGAGGAUCACCCAUGUGUCUA [Mat - Exclusion 4 - Eli Mod - D8] (Eterna round: R97, puzzle: Exclusion 4) | 60 | 28.5 | – | – | – | –
GUAAAGGUAGGAUAUACGAAGAAAAAGGGUAGAAUAAUAACACAUGAGGAUCACCCAUGUAGAAGGACCAAAGG [Mat - Exclusion 2 - Mod of my Tesla design - D8] (puzzle: Exclusion 2) | – | – | 26.4 | 49.8 | 23.8 | –
GGUGGACAUGAGGAUCACCCAUGUGAGGAUAUCGGCCGGUGCGUGGUGGCUGGCGUCUCGAGAAGGCACAUAGU [Exclusion 1 V68] (puzzle: Exclusion 1) | – | – | 74.9 | – | – | –
UAAGAGUGAGGAUAUGCGUCGCUGGUCCGGAUGGACGCAUGACAUGAGGAUCACCCAUGUAGAAGGCACAAAAC [Enxela Mod 5 - Jieux - Exclusion 2] (Eterna round: R97, puzzle: Exclusion 2) | 23.5 | 23.5 | – | – | – | –
GAGAAAUUAUAGGAUAUCGAAAGGAUAAUUUAACGAGAAGGAUGAACAUGAGGAUCACCCAUGUGGUAUCAUGG [JL-ex6-3.11] (puzzle: Exclusion 6) | – | – | 302 | 346 | 157 | –
GGACGGUUAGUUAGGAUAUGCUCUACCUCGGUAGAGCAGAAGGGACAUGAGGAUCACCCAUGUGAUAACUGUUC [Omei Ex4B B35] (Eterna round: R97, puzzle: Brourd's mod of Exclusion 4) | 23.1 | 20.5 | – | – | – | –
GGCUAGUGAGGAUAUACGUGCACUCCUCAGUCGCCAGUCGGACAUGAGGAUCACCCAUGUAGAAGGUAUCGGCA [Qusoceus] (puzzle: Exclusion 2) | – | – | 24 | – | – | –
UCGACGUCGUCAGGAUAUAGUCUUAAUGUCAUGCUUUUGUUCGUACAUGAGGAUCACCCAUGUGGCUAGAAGGGACUAAAGAUU [JR_ExcNG2_Sub015] (Eterna round: R96, puzzle: Exclusion NG 2) | 12.3 | 15.8 | – | – | – | 10.1
UCACAGGCUGUGGGUGGUGACAUGAGGAUCACCCAUGUUUUGCUCGUCUUGUGCCGGGCCCGGCGCCCGGGCCCGGC [-41.8, -69.2, A 10%] (Eterna round: R97, puzzle: Sensor, turn-off variant 1) | 575 | 1210 | – | – | – | –
ACAUGAGGAUCACCCAUGUUUGGCUGGUUUUCUCCGGCUGUCGAGGAUAUAGUCCGGUAUCCGCGCUAGAAGGUGAGGGCUGGC [Aenatbe mod 5] (Eterna round: R96, puzzle: Exclusion NG 3) | 14.5 | 20.4 | – | – | – | 13.1
GAUCAUGCAGGAUAUACAUGGACCAUGAAAACAUGGAUUUCACAUGAGGAUCACCCAUGUAGAAGGGCAUGAUC [Omei Ex2 A9] (Eterna round: R97, puzzle: Exclusion 2) | 82.1 | 777 | – | – | – | –
UACAUGAGGAUCACCCAUGUUUUGUCGUGUAUGGUAUUUAUCUAGGAUAUCAAGUUAUUUAGUUAUGAGAAGGAGAAUAUUAAU [JMF's solution 35] (Eterna round: R96, puzzle: Exclusion NG 3) | 31.5 | 40.4 | – | – | – | 31.6
